For three molecules, EC50 results are on record in patent US20230355660A1.

Square brackets hold non-standard residues; d marks the D form. Ends that are not written are not given here.

The experiment deals with mAB anti V5 (Thermo Scientific), mouse anti V5 antibody. Put plainly: ELISA: 1 µg/ml mouse anti V5 antibody with increasing amounts of SADC, complexes captured on streptavidin plate via biotinylated SADC peptide, bound IgG detected with anti mouse IgG-HRP. (In general: An ELISA detects its analyte on a solid surface through an enzyme-linked reagent.)
One may read the EC50 as the midpoint of the concentration-response curve. A higher EC50 goes with weaker potency. Take IPNPLLGLDGGSGDYKDDDDKGK[BiotinAca]GC (peptide, part only; not given: albumin scaffold, part only, also: peptide conjugated to albumin scaffold, copy number not given here) [SADC with albumin scaffold carrying tagged V5 peptide]: the EC50 amounted to 0.0279 µg/mL.
As for IPNPLLGLDGGSGDYKDDDDKGK[BiotinAca]GC (peptide, part only; not given: transferrin scaffold, part only, also: peptide conjugated to transferrin scaffold, copy number not given here) [SADC with transferrin scaffold carrying tagged V5 peptide], the figure is 0.007 µg/mL.
Take IPNPLLGLDGGSGDYKDDDDKGK[BiotinAca]GC (peptide, part only; not given: haptoglobin scaffold, part only, also: peptide conjugated to haptoglobin scaffold, copy number not given here) [SADC with haptoglobin scaffold carrying tagged V5 peptide]: the EC50 is 0.0555 µg/mL.
